For assay [1], the system named is KG-1 (acute myeloid leukemia) xenograft. The assay is classed as in vivo, NOD-SCID mice. The note with it: Table 44; dose not given; KG-1 AML model. The procedure:
Subcutaneous tumors are generated by injection of 1×10^7 cancer cells in a mixture of PBS (without magnesium or calcium) and BD Matrigel™ (BD Biosciences) at a 1:1 ratio in the right flank of female SCID or nu^−/− mice. The injected total volume per mouse is […] with 50% being Matrigel (BD Biosciences). Mice are randomized once tumors reach a size between 65-200 mm^3. Antibodies are administered weekly, and body weights and tumors are measured once and twice weekly, respectively. Tumor volume is calculated as described (van der Horst et al. (2009) Neoplasia 11: 355-364). As a negative control, mice are injected with either purified mouse IgG or PBS; or a purified monoclonal antibody that recognizes an antigen other than C16orf54.
Anti-C16orf54 antibodies were tested for their anti-tumor activity in an animal-tumor model. For these studies, the cell line KG-1 (acute myeloid leukemia) was obtained from ATCC and cultured according to the suppliers' protocols. Animals were obtained from Taconic (Hudson, N.Y.). Studies were conducted with anti-C16orf54 antibodies and antibody-drug conjugates (ADCs) of these antibodies.
In these experiments, 4-6 week-old immunodeficient NOD-SCID female mice were used for the KG-1 tumor model. Mice were subcutaneously injected on the right flank with 6×10^6 viable cells (KG-1) in a mixture of PBS (without magnesium or calcium) and BD Matrigel™ (BD Biosciences). Once the tumor reached a size between 65-200 mm^3 mice were randomized. Anti-C16orf54 antibodies were administered weekly, and bodyweights and tumors were measured once and twice weekly, respectively. Tumor volume was calculated as described (van der Horst et al., supra). Experiments were performed on groups of at least eight animals per experimental point.
Statistical significance between treatment and control groups was calculated using the Graphpad Prism® software package and applying Student's two-tailed t-test. A p-value of less than 0.05 was considered significant.

Assay [2] has as its target T1, human C16orf54 (human, UniProt Q6UWD8 1-224).
T1 construct: also called huC16orf54; hC16orf54
T1 sequence: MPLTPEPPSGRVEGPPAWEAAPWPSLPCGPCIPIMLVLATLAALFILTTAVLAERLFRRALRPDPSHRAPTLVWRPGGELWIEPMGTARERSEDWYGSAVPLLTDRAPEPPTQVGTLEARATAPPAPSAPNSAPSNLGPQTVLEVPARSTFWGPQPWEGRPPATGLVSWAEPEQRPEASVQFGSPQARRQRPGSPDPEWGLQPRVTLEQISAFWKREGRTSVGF
Put plainly: cell-based or functional assay.

In assay [3] the target is T2, cynomolgus monkey C16orf54 (cynomolgus monkey (Macaca fascicularis), UniProt Q6UWD8 1-224 (human entry)).
T2 construct: also called cyno C16orf54; cyno-C16orf54
T2 chain: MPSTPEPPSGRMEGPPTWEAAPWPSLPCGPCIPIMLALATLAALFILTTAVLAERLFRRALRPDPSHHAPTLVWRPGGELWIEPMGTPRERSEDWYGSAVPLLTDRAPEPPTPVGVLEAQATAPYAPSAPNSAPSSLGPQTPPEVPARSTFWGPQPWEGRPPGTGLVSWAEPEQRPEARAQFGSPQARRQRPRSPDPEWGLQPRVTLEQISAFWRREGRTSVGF
The experiment in a line: flow cytometry, 10 ug/ml antibody, F279-cyno-C16orf54 cells. As to the method:
(§1) Anti-C16orf54 antibodies which bound to human C16orf54 were tested for their reactivity with human C16orf54 and their crossreactivity with C16orf54 from cynomolgous monkeys (cyno C16orf54) using flow cytometry. Sarcoma cells transfected with and expressing human C16orf54 or cyno C16orf54 were washed with PBS with 0.1% BSA, incubated with FcX receptor blocking solution (BioLegend) for 15 minutes, incubated with 10 μg/ml of anti-C16orf54 antibody for 1 hour at 4° C., washed twice with PBS with 0.1% BSA, incubated with 20 μg/ml of R-Phycoerythrin-AffiniPure F(ab′)2 Fragment Goat Anti-Mouse IgG, Fcγ Fragment Specific (Jackson ImmunoResearch) for 30 minutes at 4° C., washed twice with PBS with 0.1% BSA, incubated with the viability dye TO-PRO-3 iodide (Life Technologies), and immediately analyzed on a MACSQuant Analyzer instrument (Miltenyi). For each cell line and anti-C16orf54 antibody, a fold change was derived by dividing the median fluorescence intensity for Phycoerythrin in the live cell population for the anti-C16orf54 antibody by the median fluorescence intensity for Phycoerythrin in the live cell population for the IgG isotype control antibody. A number of anti-C16orf54 antibodies (see, e.g., R29-8-57B, R29-8-136C, R29-7-1C, R29-67-7A, R29-67-4A, and R29-7-2A) bind human C16orf54 and also bind (e.g., are crossreactive with) cyno C16orf54.

Assay [4] addresses T1, human C16orf54. The experiment in a line: flow cytometry, 10 ug/ml antibody, D42M1-huC16orf54 cells. As to the method: as §1
Background: In flow cytometry, cells or beads pass a laser one at a time.

Assay [5] concerns the target T1, human C16orf54. Put plainly: flow cytometry titration, KG1 cells (endogenous human C16orf54).

As for `O=P1(N(CCCl)CCCl)NCCCO1` (stereo not shown) [Cyclophosphamide], in assay [1], the TGI is −42% and the Volume is recorded as 1580 mm^3.

B1: R29-7-1C-mcMMAF (protein)
VH: DVQLQESGPGLVKPSQSLSLTCTVTGYSITSDYAWNWIRQFPGNKLEWMGYISYSGSIRYNPSLKSRISITRDTSKNQFFLQLNSVTTEDTATYYCAREKYDNYYYAMDYWGQGTSVTVSS
VL: DIVMSQSPSSLAVSVGEKVTLSCKSSQNLLYSTNQKNYLAWYQQKPGQSPKLLIYWASTRESGVPDRFTGSGSGTDFTLTISSVKAEDLAVYYCQQYYSYRTFGGGTKLEIK
modifications: maleimidocaproyl-monomethylauristatin F (MC-MMAF) on reduced cysteine thiols of the antibody; positions not given
As for B1, in assay [2], the IC50 nM, cell viability, C16orf54 expressing sarcoma line 2, 72 hours came to 0.2 nM and the IC50 (nM), cell viability, C16orf54 expressing Sarcoma line 1, 72 hours worked out at 0.1 nM.

B2: R29-67-7A mcMMAF (protein)
VH: DVQLQESGPGLVKPSQSLSLTCTVTGYSITSDYAWNWIRQFPGNKLEWMGYINYSGRTRYNPSLNSRISLTRDTSTNQFFLQLNSVTTEDTATYYCARENYDYEFYAMDYWGQGTSVTVSS
VL: DIVMSQSPSSLAVSVGEKVTMSCKSSQNLLYSSNQKNYLAWYQQKPGQSPKLLIYWASTRESGVPDRFTGSGSGTDFTLTISSVKAEDLAVYYCQQYYIYRTFGGGTKLEIK
modifications: maleimidocaproyl-monomethylauristatin F (MC-MMAF) on reduced cysteine thiols of the antibody; positions not given
In assay [2], B2 displayed an IC50 nM, cell viability, C16orf54 expressing sarcoma line 2, 72 hours of 0.1 nM and an IC50 (nM), cell viability, C16orf54 expressing Sarcoma line 1, 72 hours of 0.1 nM.

B3: R29-8-50C (antibody, V domains shown)
VH: EVKLVESGGGLVKPGGSLKFSCAASGFTFSSYAVSWVRQTPEKRLEWVASITSGGRTYYPDSVKGRFTISRDNARSMLYLHMSSLRSEDTAMYYCTRGWDENDLWGQGTTLTVSS
VL: DVVMTQTPLSLPVSLGDQASISCRSSQSLVYSNGNTYLHWYLQRPGQSPQLLIYKVSNRFSGVPDRFSGSGSGTDFTLKISRVEAEDLGVYFCSQTTHVPWTFGGGTKLEIK
notes: Murine monoclonal antibody from a hybridoma
As usually defined, the EC50 is the concentration giving half of the maximal effect. For the molecule B3, the entries for the “Median fold change relative to IgG control” value in assay [3] and in assay [4] were 3.2 fold and 159 fold, respectively. A half-maximal effect in assay [5] (EC50) was put at 0.7 nM.

B4: R29-8-9B (antibody, V domains shown)
VH: EVKLVESGGGVVKPGGSLKLSCAASGFTFSSYAMSWFRQTSEMSLEWVASITGGGGTYYPDSVKGRFTISRDTVRNILYLQMRSLRSGDTAIYYCARGWDENDYWGQGTTLTVSS
VL: DVVMTQIPLSLPVSLGDQASISCRSSQSLVFSNGNTYLHWYFQKPGQSPKLLIYKVSNRFSGVPDRFSGSGSGTDFILRISRVEAEDLGVYFCSQSTHVPWTFGGGTKLEIK
notes: as for B3
For B4, the “Median fold change relative to IgG control” value is 2 fold in assay [3] and 194 fold in assay [4]. This molecule had an EC50 in assay [5] of 1.5 nM.

B5: R29-7A-53A (antibody, V domains shown)
VH: QVQLKESGPGLVAPSQSLSITCTVSGFSLTDYAISWIRQPPGKGLEWLGVIWGGGRTYSNSALKSRLSISKDNSRSQIFLKMNSLQTDDTAMYYCAKHEEVSRFAYWGQGTLVTVSV
VL: DVVLTQTPLSLPVSLGDQASISCRSSQSLVYSNGNSYLHWYLQKPGQSPKLLIYKVSNRFSGVPDRFSGSGSGTDFTLKITRVEAEDLGVYFCSQSTHIPLTFGAGTKLELK
notes: Murine monoclonal antibody from a hybridoma; also called R29-7-53A
Take B5: the “Median fold change relative to IgG control” value in assay [3] was determined as 1.2 fold; in assay [4], 5.7 fold.

B6: R29-8-28C (antibody, V domains shown)
VH: EVKLVESGGGVVKPGGSLTLSCAASGFTFSNYAVSWFRQTPEKRLEWVASITSGGRTYYPDSMKGRFTISRDNARNILYLQMSSLRSEDTAIYYCGRGWDENDYWGQGTTLTVSS
VL: DVVMTQTPLSLPVSLGDQASISCRSSQSLVYSNGNTYLHWYLQKPGQSPKLLIYKVSNRFSGVPDRFSGSGSGTDFTLKINRVEAEDLGVYFCSQTTHVPWTFGGGTKLEIK
notes: as for B3
In the case of B6, the “Median fold change relative to IgG control” value is 3.3 fold in assay [3] and 156 fold in assay [4]. The same molecule came in with an EC50 in assay [5] of 2.1 nM.

B7: R29-8-120B (antibody, V domains shown)
VH: KVNLVESGGGLVKAGGSLKLSCAASGFTFSIYAMSWFRQTPEKRLEWVASITGGGTNFYPDSVRGRFTISRDNVRNILYLQMSSLRSEDTAMYYCARGWDENDYWGQGTTLTVSS
VL: DVVMTQTPLSLPVSLGDQASISCRSSQSLVYSNGNTYLHWYLQKPGQSPKLLIYKVSNRFSGVPDRFSGSGSGTDFTLKISRVEAEDLGVYFCSQSTHVPWTFGGGTKLEIK
notes: as for B3
Turning to B7, the “Median fold change relative to IgG control” value amounted to 5.2 fold in assay [3] and 106 fold in assay [4]. This molecule also showed an EC50 in assay [5] of 2.6 nM.

B8: R29-8-19B (antibody, V domains shown)
VH: EVKLVESGGGLVKPGGSLKFSCAASGFTFSSYAVSWVRQTPEKRLEWVASITSGGRTYYPDSVKGRFTISRDNARSMLYLHMSSLRSEDTAMYYCTRGWDENDLWGQGTTLTVSS
VL: DVVMTQTPLSLPVSLGDQASISCRSSQSLVYSNGNTYLHWYLQKPGQSPQLLIYKVSNRFSGVPDRFSGSGSGTDFTLKISRVEAEDLGVYFCSQTTHVPWTFGGGTKLEIK
notes: as for B3
On to B8, for which the figures for the “Median fold change relative to IgG control” value in assay [3] and in assay [4] were 4.5 fold and 198 fold, respectively. Further, the midpoint of the response in assay [5], the EC50, lay at 0.9 nM.

B9: R29-7A-54C (antibody, V domains shown)
VH: QVQLKESGPGLVAPSQSLSITCTVSGFSLTDYAISWIRQPPGKGLEWLGVIWGGGRTYSNSALKSRLSISKDNSRSQIFLKMNSLQTDDTAMYYCAKHEEVSRFAYWGQGTLVTVSV
VL: DVVLTQTPLSLPVSLGDQASISCRSSQSLVYSNGNSYLHWYLQKPGQSPKLLIYKVSNRFSGVPDRFSGSGSGTDFTLKITRVEAEDLGVYFCSQSTHIPLTFGAGTKLELK
notes: Murine monoclonal antibody from a hybridoma; also called R29-7-54C
Consider B9, for which the “Median fold change relative to IgG control” value in assay [3] amounted to 1 fold; in assay [4], 12.1 fold.

B10: R29-8-12A (antibody, V domains shown)
VH: EVKLVESGGGLVKPGGSLKFSCAASGFTFSSYAVSWVRQTPEKRLEWVASITSGGRTYYPDSVKGRFTISRDNARSMLYLHMSSLRSEDTAMYYCTRGWDENDLWGQGTTLTVSS
VL: DVVMTQTPLSLPVSLGDQASISCRSSQSLVYSNGNTYLHWYLQKPGQSPQLLIYKVSNRFSGVPDRFSGSGSGTDFTLKISRVEAEDLGVYFCSQTTHVPWTFGGGTKLEIK
notes: as for B3
With B10, the results for the “Median fold change relative to IgG control” value in assay [3] and in assay [4] were 3.6 fold and 193 fold, respectively. The EC50 in assay [5] stood at 1.1 nM.

B11: R29-8-36C (antibody, V domains shown)
VH: EVKLVESGGGLVKPGGSLKFSCAASGFTFSSYAVSWVRQTPEKRLEWVASITSGGRSYYPDSVKGRFTISRDNARSMLYLHMSSLRSEDTAMYYCTRGWDENDLWGQGTTLTVSS
VL: DVVMTQTPLSLFVSLGDQASISCRSSQSLLYSNGNTYLHWYLQRPGQSPQLLIYKVSNRFSGVPDRFSGSGSGTDFTLKISRVEAEDLGVYFCSQTTHVPWTFGGGTKLEIK
notes: as for B3
For B11, the “Median fold change relative to IgG control” value worked out at 3.6 fold in assay [3] and 184 fold in assay [4]. In addition, a half-maximal response in assay [5] (EC50) required 0.6 nM.

The values above are taken from US20150231240A1, “ANTI-C16ORF54 ANTIBODIES AND METHODS OF USE THEREOF” (priority 2012, published 2015).
